From the supplement of paper PMC12042874
± gives the uncertainty stated by the source.

Experiment: amyloid nucleation score (Sup35N fusion, yeast selection) (log enrichment); library NNK3; higher = more nucleation; inactive = no reads after selection
Summary of the method: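 The nucleation score is the log enrichment of output over input reads, calculated with DiMSum and centred on the mode score of non-aggregating sequences. Sequences with under 100 input reads were excluded. Reads came from Illumina sequencing of plasmid inserts from psi-negative yeast expressing Sup35N fused to peptides of 20 random codons, induced 24 hours with 100 μM copper sulfate and grown 7 days at 30°C without adenine and uracil.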

Substance | amyloid nucleation score
CYTIRLWARLNLCRGIKS | -0.439 ± 1.1
GREFRICNSFVWVSVFIFCG | inactive
FSACRDRTLGDHGQQPRDIG | inactive
GRLCELITSMY | inactive
FRLMVGCCYGGPGREVWAGG | inactive
RCLLYTAY | inactive
CSRPVVLIKGLLWAFRRWAY | inactive
DEEQF | -0.143 ± 0.34
MPFPVGNFHQGDNMNVSQCG | 0.61 ± 0.12
GEKIDRVM | inactive
CCRLHRGISVNPILQSYGIM | inactive
IRLDSYLDNMSMLLCKYWFC | inactive
VDFYLR | inactive
IFIQLSDLMQSKVAHECGWC | inactive
VNLVLIISNPR | inactive
VLCCANKYSFTNQQSGSASE | 0.952 ± 0.1
NNYVMA | -0.231 ± 1.1
IVRMNQCSMGCLRVAMSSS | inactive
KQVNWS | inactive
HIFHQIKANDHAIFLGNVSG | inactive
SLCGLFRYAWYQFEFNDVRA | 0.977 ± 0.12
SESTFYMGRLFKEGPRKHVT | inactive
TIKYVDRPARTGGEALAIVV | -0.323 ± 1

Substance | amyloid nucleation score
INTVLLGYS | inactive
YKSDSLLRSSLLTELTPIHF | inactive
YSYAQMSLMEQQMLIRT | inactive
MLLGRLSLEVKFEWIFPRIG | 0.687 ± 0.14
STQTGASRRENSPMGLGYNS | inactive
ATIYICGLNPNRVAACIVLE | inactive
AWVPMFFSLHMWHCNALNFC | inactive
RKKTNCHINYFMDALFERLA | inactive
TGSVVRDMVMAFTD | -0.458 ± 0.93
KHLGKAKSSGST | inactive
RLFSRDLTSFCFLFFNFRWK | inactive
TSLGFSLSSSTDAFVEKFEG | 1.56 ± 0.077
WLVYPC | inactive
RDHSTMQTEVLEWSRNPSMG | inactive
HIKKRYKLLAMLLMSDLR | inactive
LNTRVGSFTNRLWSRMKEGG | inactive
VAIGYIASVLK | inactive
SLAAIYSFVYFSSDVIRSHY | 1.34 ± 0.15
LKYFQVRT | inactive
HYFGKT | inactive
AGCIGFNVFEH | inactive
SISAALWAFL | inactive
LPTSQA | inactive

Substance | amyloid nucleation score
CKEHLHQLFMGRCSTV | inactive
KACWLYLIFIFFGWVYSKTI | 0.745 ± 0.25
CAPLSVVWNSRGFM | inactive
SVYCSCISFGPTSKILVIMD | 2.34 ± 0.088
VYTGWKKVACNA | -0.211 ± 0.53
TLLYTI | inactive
KRGLTGVSLVLDETVAVPSD | inactive
VVEPNTRVIWRLLHIDLDKQ | inactive
CNISERENALETHTMNKFVV | inactive
GRRSNCINSVNSGTRGRRRA | inactive
INAGF | inactive
ACSRGKCFTNRGSRWHLFVC | inactive
FGMPCFSSEYLLTCMVVLTG | inactive
NCNIWIEVQFTASDVIISWV | 1.69 ± 0.066
NFWEYQSECWRVTQW | inactive
MIFLRIFYGLLGNSQFIIFL | 0.331 ± 0.56
FFKSLRV | inactive
IRVMNEMYLFLNRVYFAFSY | inactive
IRFSGIVAVMISQGGSRREC | 2.5 ± 0.08
GLSYNFHLCQVLVIFMVDGS | 1.66 ± 0.1
WGLRFFIWQPRDMFSACCTC | 1.6 ± 0.11
IDALIYG | inactive
HGWYSVFADSRRYCKRVRYT | inactive

Substance | amyloid nucleation score
LLYVKFIVPYTTM | inactive
FNSFCAYNTRHYYVVLGGIV | 1.04 ± 0.13
GKLYPKNVSWILFSAETYLY | 2.54 ± 0.075
LFGNSNRSGCSSLRQIGCLC | inactive
LYEAVDRGLSRR | inactive
VSALSGGFMENCCQSNFLTP | inactive
SDFRVTPLLYE | inactive
VCASIGCRTGD | inactive
RGTMLLRNISIVCQLYPLST | inactive
FYRRNAI | inactive
IRDYVFRLYYRLNCMIRKRG | inactive
SNVEYCLYARLYLGCGVCHP | 0.176 ± 0.42
GSISIVVQM | 2.2 ± 0.075
CHDLLHVVIEIPVCFLCTKG | 0.807 ± 0.18
VIMFVAIGWLLR | inactive
FCGPFSYGRLTYGFWFRKRP | 1.75 ± 0.11
ISHFLE | inactive
INFYVSFYIIVTCYVVAHCV | 1.32 ± 0.15
SGVRANFDFLASVAAHPLNS | inactive
VYCFV | inactive
VTTSMCAIQD | inactive
AKWCVF | -0.714 ± 2.4
ITRTSDLFMLGSLINRGIAA | inactive

Substance | amyloid nucleation score
DWEDCVV | inactive
IPSWELISGHWS | inactive
IARATFFINQR | 1.43 ± 0.15
TTCAVCRCIRGAMFNGSVSK | inactive
MIVSQVCTRSHVMGRSLGAE | inactive
SAIYMTVTVLVPFGFEMDNK | 0.178 ± 0.49
YLSIGSVSMSAGASANDAQ | inactive
CNSGWGTYVV | inactive
YIQITQMAALARLYIYMRMC | inactive
LASRMMFSLTDAMTDADGSV | inactive
NEALSERQYRAMLTETLVAG | inactive
MFRWLAQWALLTTTSRPASQ | inactive
TMVFILQMLV | 1.47 ± 0.097
NGFSFRLGWH | 1.55 ± 0.1
RNVIANEGLCQKR | inactive
YPALINSVFITDAIGGPYCL | inactive
PLRRSMMRIPHATF | inactive
IQDHFELFTNVGSYFQIQPL | inactive
FVGVYKMGFASCSMSGSGWV | inactive
KMKCRVIYVLSSLIYCM | inactive
NCFEYLYPRVTDTELNRFFL | inactive
YSVAVREIVGMNSKLLCDVN | inactive
SILKGGFCYMNFRSGKWGV | inactive

Substance | amyloid nucleation score
LQSVMFLPICFLLT | inactive
CPCRHVFSRLSPF | inactive
TMVYPKIPGGRTLAWDMTGR | inactive
WIGRTLLDSYDGRFSIAIRD | inactive
TPFTFGCHRLLQHKYCNSDV | inactive
YETVMFSS | inactive
KKCHGMMCNTITRTINILC | inactive
EFGDFVDKASMLNIWDGIVG | inactive
SVIARVVRPMLRCKVSSMSM | inactive
IYVVRIYVSWVNILHALVYS | inactive
MPSRHFLGY | inactive
GESNLCDAG | inactive
PRDCS | inactive
LLLWGTHHSMIYYDGCLIFI | inactive
NMIWANEQE | inactive
FYVVNSWPRMMCGQARILCL | inactive
AYSSWALMLGHTMCIYGGFR | 1.55 ± 0.13
TTCFTHGKLPNIRAWSIWTQ | inactive
VMIFSCYSAYYPNLISHSRW | inactive
LIGSGV | inactive
WVDFTTWLKFVFRSSIHYLL | 0.012 ± 0.68
DWNRLFRVD | inactive
ELLLMCIDDVSMRFITPLEY | inactive

Substance | amyloid nucleation score
KGSLGVPWLLVNSGLINGC | inactive
RWWVNSCMEIM | inactive
WHNMSMMKSVPTYSGESHTR | 0.97 ± 0.18
CVLCYRWSHMVLTPGMTGRD | inactive
IKMNNDGSMILWSLSSPTDL | inactive
VYHWFWMQRLNGWFENQQRK | inactive
LLFRFMTGVVRLPRDNTYRK | inactive
TSGHVVTMEHRLLYVPTIGF | inactive
FCSRYWLYLCRALLNRVVMR | inactive
VRMQLMWCGP | inactive
FNVRWGWLGDLIYGGFLHVG | inactive
NVHVISVFGFYEVTLFNDEV | inactive
SPRQHARCRTLTLTRTLRPM | inactive
LERHL | inactive
SMSFTQFKGGGSIIITWCWP | inactive
SSSRMFSSLFSVCIWVDTII | inactive
LCSAIGWSSACIFVWSYYTR | inactive
TACLSVQMWFRFSVFSGVYL | inactive
TWQVVNSPYPMRNIPYRSRW | inactive
VTCCARTYYSWP | inactive
ASWPNYYWSNSLILFRDKCV | 0.019 ± 0.3
GVDCQASILHPCLFF | inactive
DGEGN | inactive
